Test results published in article PMC7870846, “Incorporation of sensing modalities into de novo designed fluorescence-activating proteins” (Nature Communications, 2021).

Tests used:
[1] = with DFHBI; cited from earlier work
[2] = design: method as in PMID 30209393; conditions: read-out: Kd for the phenolate form of DFHBI; cited from earlier work
[3] = In vitro chromophore titration with DFHBI (fluorescence, single-binding site isotherm fit)
Experimental: Fluorescence endpoints were measured on a Synergy Neo2 hybrid multi-mode reader (BioTek) in flat bottom, black polystyrene, non-binding surface 96-well microplates (Corning 3650). In measuring chromophore-binding affinities (Fig. 1d, e), mFAP2, mFAP2a, and mFAP2b, and mFAP10 were produced by large-scale protein purification and SEC purification. Proteins were aliquoted in eight technical replicates in 200 μL final volumes to 20.0 nM final concentration in ten serial dilutions ( 10 dilution factor) of DFHBI starting from 31.6 μM DFHBI or 31.6 μM DFHBI-1T final concentrations, including an eleventh condition without chromophore. Fluorescence was excited at λex = 468 nm and fluorescence emission measured at λem = 530 nm. Background fluorescence endpoints of wells with identical chromophore concentrations but purified protein replaced with an identical volume of high-salt Tev cleavage buffer were measured, and fluorescence endpoints subtracted from those measured with protein. Background-subtracted data were averaged and the means normalized from 0 to 1 and fit to a single-binding site isotherm function using non-linear least squares fitting to obtain a fitted Kd value (Table 1), and the fit scaled to the maximum mean value (Fig. 1d, e).

[4] = Photophysical characterization: absorbance, excitation/emission spectra, extinction coefficients, quantum yields; assay type: physicochemical
Experimental: Protein preparation: mFAP2a, mFAP2b, and mFAP10 were produced by large-scale protein purification and SEC purification, and dialyzed overnight into DPBS that was adjusted to pH 7.40 using NaOH.
Chromophore preparation: DFHBI (Lucerna) and DFHBI-1T (Lucerna) were dissolved to 20.0 mM in 100% DMSO, and diluted in DPBS (pH 7.40) to measure absorbances on a Jasco V-750 spectrophotometer at peak absorbance wavelengths (417 nm for DFHBI and 422 nm for DFHBI-1T). Following background subtraction of identical buffer without chromophore, Beer’s Law was used to calculate the molar chromophore concentrations of the stock solutions using previously reported extinction coefficients.
Preparation of protein–chromophore complexes: For quantum yield measurements, 1.00 μM, 836 nM, or 919 nM chromophore solutions in DPBS (pH 7.40) at 4.00 mL final volumes were prepared for the following eight conditions: DFHBI only, DFHBI-1T only, 43.5 µM 6xHis-mFAP10 with DFHBI, 43.5 µM 6xHis-mFAP10 with DFHBI-1T, 134 μM 6xHis-mFAP2a with DFHBI, 134 μM 6xHis-mFAP2a with DFHBI-1T, 206 μM 6xHis-mFAP2b with DFHBI, and 206 μM 6xHis-mFAP2b with DFHBI-1T.
Extinction coefficients: Absorbance spectra of protein–chromophore complexes were first measured with a Thermo Scientific BioMate 3S UV–Vis Spectrophotometer (1 nm interval, 800 nm min^−1). The extinction coefficients were then calculated using Beer’s Law:12 A=ε⋅b⋅c, where A is peak absorbance, ε is extinction coefficient, b is path length (1 cm), and c is concentration (1.00 μM, 836 nM, or 919 nM).
Relative quantum yield: A Perkin-Elmer LS-B Luminescence Spectrophotometer (10 nm bandwidth, 1 nm interval, 100 nm min^−1) was used. The fluorescence emission spectra of the protein–chromophore complexes (in DPBS, pH 7.40) and reference dye Acridine Yellow G (in methanol) were first obtained, and the quantum yield was then calculated using the equation[53]:13 ϕc=ϕr⋅1−10^−Ar(λex)/1−10^−Ac(λex)⋅∫Fc(λ)⋅dλ/∫Fr(λ)⋅dλ⋅nc2/nr2, where ϕ is quantum yield, A(λex) is absorbance at the excitation wavelength λex ( λex = 440 nm), F is fluorescence emission, n is refractive index of the solution (1.3350 for DPBS at pH 7.40 and 1.3284 for methanol), and the subscripts “c” and “r” refer to the protein–chromophore complex measured and the reference dye, respectively. […]
Absolute quantum yield: An integrating sphere instrument (Hamamatsu C9920-12) (6 nm excitation bandwidth, 1 nm interval) and a high-sensitivity photonic multi-channel analyzer (Hamamatsu C10027-01) were used to measure a light emission spectrum. Absolute quantum yields were measured for solutions of protein–chromophore complexes in DPBS (pH 7.40) in which ≥95% of the total chromophore was occupying the protein-binding pocket (Table 1). […]

BCL2 = molecular target: BCL2; design: method as in PMID 27805565; conditions: read-out: dissociation constant (Kd); cited from earlier work
[5] = Fluorescence intensity assays of mFAP variants; assay type: biochemical; conditions: low-DFHBI concentration (555 nM)
Experimental: To measure fluorescence intensities of the phenolate form of chromophores, fluorescence was measured on a Synergy Neo2 hybrid multi-mode reader (BioTek) in flat bottom, black polystyrene, non-binding surface 96-well microplates (Corning 3650). Fluorescence intensity was measured in triplicate by exciting at λex = 484 nm and measuring fluorescence emission at λem = 505 nm (or λem = 511 nm for clones harboring the W27 mutation) (Supplementary Fig. 1g, h). The W27 mutation redshifts the peak emission wavelength from λem = ~505 nm to λem = ~511 nm, presumably due to the W27 indole ring donating a hydrogen bond to the imidazolinone moiety of the deprotonated state of DFHBI, which stabilizes the chromophore conjugated π–electron system in the excited state causing the redshift in emission. Fifteen microliters of small-scale purified protein[49] was combined with 185 μL of Na2HPO4-citrate (pH 7.36) buffer supplemented with 150 mM NaCl and 108 nM DFHBI for a final concentration of 100 nM DFHBI. In measuring the excitation spectra from λem = 525 nm of each clone in triplicate (Supplementary Fig. 1i), 30.0 μL of large-scale purified protein[49] was combined with 170 μL of 25.0 mM Tris (pH 8.00) supplemented with 100 mM NaCl and 914 nM DFHBI for a final concentration of 7.77 μM protein and 777 nM DFHBI. In measuring the fluorescence intensity at λex = 484 nm and λem = 509 nm of each clone in triplicate (Supplementary Fig. 1j), 30.0 μL of large-scale purified protein[49] was combined with 170 μL of 25.0 mM Tris (pH 8.00) supplemented with 100 mM NaCl and 653 nM DFHBI for a final concentration of 5.55 μM protein and 555 nM DFHBI. In measuring fluorescence intensity at λex = 468 nm and λem = 530 nm of each clone in technical triplicate (Supplementary Fig. 1k), 24.0 μL of 35.4 µM large-scale purified protein[49] was combined with 1.00 μL of 1.25 µM DFHBI or 1.00 μL of 1.25 µM DFHBI-1T (Lucerna) (from […] chromophore stock solutions dissolved in 0.5% DMSO and 99.5% high-salt Tev cleavage buffer [25.0 mM Tris, 100 mM NaCl, pH 8.00]) for final concentrations of 34.0 μM protein and 50.0 nM chromophore. The mFAP9–DFHBI complex had ~1.1-fold the fluorescence intensity of the mFAP10–DFHBI complex, and the mFAP9–DFHBI-1T complex had ~0.75-fold the fluorescence intensity of the mFAP10–DFHBI-1T complex (Supplementary Fig. 1k). In collecting fluorescence emission spectra by exciting fluorescence at λex = 484 nm and collecting fluorescence emission at λem = 495–650 nm (Supplementary Fig. 6b), and in measuring fluorescence endpoints in techincal triplicate at unique peak excitation and emission wavelengths (Supplementary Fig. 6c), 195 μL of large-scale purified protein[49] was combined with 5.00 μL of 25 mM Tris (pH 8.00) supplemented with 100 mM NaCl and 40.0 μM DFHBI for a final concentration of 10.0 μM protein and 1.00 μM DFHBI.
In measuring fluorescence intensity of small-scale purified proteins[49] (Supplementary Table 1), wells were excited at λex = 488 nm for DFHBI and DFHBI-1T and λex = 505 nm for DFHO, and fluorescence emission measured at λem = 510 nm for DFHBI and DFHBI-1T and λem = 545 nm for DFHO. […]

| higher affinity for DFHBI than DFHBI-1T [3] | Molecule | absolute fluorescence quantum yield (ϕc) [1] | Kd [2] | brighter fluorescence with DFHBI-1T than DFHBI [4] | Kd (BCL2) | brighter fluorescence than mFAP2b [5] |
| --- | --- | --- | --- | --- | --- | --- |
| ~ 39 fold | mFAP2a: mFAP2 variant, "a" for affinity (protein) SRAAQLLPGTWQATFTNEDGQTSQGQWHFQPRSPYTMDIVAQGTISDGRPIVGYGKATVKTPDTLDIDITYPSLGNIKAQGQITMDSPTQFKWDATTKGENDFHGRLTGTLQRQE |  |  | ~ 2.5 fold |  | ~ 1.3 fold |
| ~ 2.6 fold | mFAP10: variant from the IN2 combinatorial library (protein) SRAAQLLPGTWQATFTNEDGQTSQGQIHFQPRSPYTMDIVAQGTISDGRPIVGYGKATVKTPDTLDIDITYPSLGNIKAQGQITMDSPTQFKFDATTKGENDFHGRLTGTLQRQE |  |  | ~ 12 fold |  |  |

Further lines, the molecule ahead of its results:

| Molecule | higher affinity for DFHBI than DFHBI-1T [3] | absolute fluorescence quantum yield (ϕc) [1] | Kd [2] | brighter fluorescence with DFHBI-1T than DFHBI [4] | Kd (BCL2) | brighter fluorescence than mFAP2b [5] |
| --- | --- | --- | --- | --- | --- | --- |
| mFAP2: previously reported mini-fluorescence-activating protein, initial design (protein) SRAAQLLPGTWQVTMTNEDGQTSQGQMHFQPRSPYTMDVVAQGTISDGRPISGYGKVTVKTPDTLDVDITYPSLGNIKAQGQITMDSPTQFKFDATTKGAGNFTGRLTGTLQRQE | ~ 30 fold | 2.1% | ~180 nM | ~ 2.7 fold |  |  |
| aBCL2: designed binding partner of BCL2 (protein) GADPKKVLDKAKDEAENRVRELKQRLEELYKEARKLDLTQEMRQELVDKARAASLQANGDIFYAILRALAEAEKLKKAGLVNSQQLDELKRRLEELAEEARRKAEKLRDEFRLKLEYG |  |  |  |  | 0.8 ± 0.5 nM |  |
| aBFL1: designed binding partner of BFL1 (protein) GADPKKVLDKAKDQAENRVRELKQKLEELYKEARKLDLTQEKRKKLEVATLGAVLAAHGDILNAIMQAKEEADKLKKAGLVNSQQLDELKRRLEELKEEALRKASDYGNEFHLKRRYG |  |  |  |  | 320 ± 40 nM |  |
